Source: US20190010233A1 (JIANGSU HYAMAB PHARMACEUTICAL, published 2019)
Blank lines part the entries; values can stand above or below the binder they belong to.

Molecular target: T1, human PD-L1^ECD-hFc protein (human, UniProt Q9NZQ7 19-239, biotinylated in the PD-1 binding ELISA (Table 3) and in the Octet assay (Table 12))
T1 construct: The plain and the biotinylated protein are kept as one molecule; also called PD-L1-hFc; Immunogen A; not shown: human IgG Fc fragment (hFc)
Assay: ELISA receptor-ligand blocking assay: PD-L1^ECD-hFc coated on the plate, antibody titrated, blocked ligand biotinylated B7.1^ECD, HRP-streptavidin, inhibition rate (%)
Procedure: Purified PD-L1^ECD-hFc (Example 2) was diluted with PBS to a final concentration of 1.0 μg/mL, and 100 μL diluted PD-L1^ECD-hFc were added to each well of a 96-well plate that was then sealed with plastic film and incubated at 4° C. overnight. The plate was washed twice with wash buffer (PBS+0.01% (v/v) Tween 20) and incubated with blocking buffer (PBS+[…]) at room temperature for 2 hours. The blocking buffer was aspirated, and 50 μL purified anti-PD-L1 antibodies from Example 2 were added to each well of 96-well plate. […] The plate was washed three times with wash buffer (PBS+0.01% (v/v) Tween 20). 100 μL HRP-conjugated streptavidin (Sigma) were then added to each well and incubated at 37° C. for 2 hours. The plate was then washed three times with wash buffer, and 100 μL TMB substrate were added to each well. After 30 minutes of incubation at room temperature, the reaction was stopped by adding 100 μL stop solution (0.1N HCl).

T1 sequence (Q9NZQ7 19-239): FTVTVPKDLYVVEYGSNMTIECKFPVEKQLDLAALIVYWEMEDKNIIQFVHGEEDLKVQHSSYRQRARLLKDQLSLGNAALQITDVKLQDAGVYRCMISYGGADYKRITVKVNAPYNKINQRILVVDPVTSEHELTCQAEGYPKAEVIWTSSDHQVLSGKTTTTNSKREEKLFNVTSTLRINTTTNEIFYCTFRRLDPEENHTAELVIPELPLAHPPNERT

IC50 (read off the curve): ~0.5 nM
B1: chimeric anti-PD-L1 antibody 73G11B3 (antibody, V domains shown)
VH: EVQLVESGGGLVQPGGSLRLSCVVSGFTFSSYWMSWVRQTPGKGLEWVANIKQDGSEKYYVDSVKGRLTISRDNAKNSLYLQMNSLRAEDTAVYYCVRDRAVPGTGALDIWGQGTMVTVSS
VL: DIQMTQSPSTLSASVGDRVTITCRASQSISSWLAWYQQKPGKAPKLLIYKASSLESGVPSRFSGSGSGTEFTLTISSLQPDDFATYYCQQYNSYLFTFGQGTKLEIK
notes: Purified from hybridoma of Harbour H2L2 mice: human variable regions, rat constant regions

IC50 (read off the curve): ~0.4 nM
B2: chimeric anti-PD-L1 antibody 127D2F3 (antibody, V domains shown)
VH: EVQLVESGGGLVQPGGSLRLSCVASGFTFSSYWMSWVRQAPGKGLEWVANIKQDGSEKYYVDSVKGRLTISRDNAKNSLYLQMKSLRAEDTAVYYCARDPIYSSYFDYWGQGILVTVSS
VL: DIQMTQSPSSLSASVGDRVTITCRASQSISNYLNWYQQKPGKAPKLLIYAASSLQSGVPSRFSGSGSGTDFTLTISSLQPEDFAAYYCQQSYGIPFTFGPGTKVDIK
notes: as for B1
